Target: His6-PopA_(R357G) labelled with Atto-488 (Caulobacter crescentus)
Experiment: MST

Question: “His6-SmrF (from UniProt A0A0H3C860 1-122) (natural protein)” was tested. Which Kd did it give?
Answer: 5.1 µM

Reference: article PMC8020655
